Molecular target: T1, Ume6p (Saccharomyces cerevisiae, UniProt P39001 1-836)
T1 sequence: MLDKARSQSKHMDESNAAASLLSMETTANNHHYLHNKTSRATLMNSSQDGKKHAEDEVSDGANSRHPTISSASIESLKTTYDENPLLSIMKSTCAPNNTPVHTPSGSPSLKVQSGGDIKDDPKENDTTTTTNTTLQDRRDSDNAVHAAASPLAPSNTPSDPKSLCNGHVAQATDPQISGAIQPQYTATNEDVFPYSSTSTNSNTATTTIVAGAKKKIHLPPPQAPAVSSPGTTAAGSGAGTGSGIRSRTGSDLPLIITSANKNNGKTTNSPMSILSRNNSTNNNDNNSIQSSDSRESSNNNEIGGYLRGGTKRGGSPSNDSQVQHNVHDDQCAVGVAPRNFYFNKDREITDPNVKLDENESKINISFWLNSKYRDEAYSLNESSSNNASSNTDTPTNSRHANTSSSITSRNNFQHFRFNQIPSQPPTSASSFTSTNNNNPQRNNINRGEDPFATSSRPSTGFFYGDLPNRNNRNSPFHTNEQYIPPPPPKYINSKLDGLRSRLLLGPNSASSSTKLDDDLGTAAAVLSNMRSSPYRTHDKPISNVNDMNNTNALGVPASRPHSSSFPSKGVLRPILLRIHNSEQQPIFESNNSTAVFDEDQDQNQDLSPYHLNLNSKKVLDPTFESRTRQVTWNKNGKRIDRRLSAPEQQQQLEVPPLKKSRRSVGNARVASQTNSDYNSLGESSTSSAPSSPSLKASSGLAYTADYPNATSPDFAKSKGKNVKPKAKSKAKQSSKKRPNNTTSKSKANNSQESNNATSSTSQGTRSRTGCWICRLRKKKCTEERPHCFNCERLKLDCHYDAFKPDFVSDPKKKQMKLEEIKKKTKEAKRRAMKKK
Experiment: EMSA; EMSA buffer and temperature not given in material; protein dialyzed in 10 mM sodium phosphate pH 7.4, 50 mM NaCl, 10 uM ZnCl2
Conditions: protein: recombinant; tags: N-terminal 6xHis (pET14b); label: Cy5 on forward oligo

B1: SPO13 URS1 probe, unmethylated (Spo13-Cy5-F/Spo13-R) (dsDNA)
DNA 1: TTAATTAGGAGTATATTGAGAAATAGCCGCCGACAAAAAGGAAGTCTCATAAAAGT
DNA 2: ACTTTTATGAGACTTCCTTTTTGTCGGCGGCTATTTCTCAATATACTCCTAATTAA
binding result: binds

From paper PMC8163762, “Impact of DNA methylation on 3D genome structure”
